Variants at the floor of the assay were thinned out.
B1: TPR 5TU (parent)
chain: GGAUCUUCUCGAUCUAACAAAAAAGACAAAUCUGCCACAAAGCUUGAGAGCAUCUUCGGAUGCAGAGGCGGCAGCCUUCGGUGGCGCGAUAGCGCCAACGUUCUCAACUAUGACACGCAAAACGCGUGCUCCGUUGAAUGGAGUUUAUCAUG

Variants of: B1
Assay: polymerase ribozyme fitness, log enrichment relative to wild type (log ratio); higher = more active; in vitro selection for triplet polymerase activity
Summary of the method: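 Streptavidin-bead capture of gel-excised extended constructs, followed by RT-PCR, closed a single triplicate in vitro selection round. That round began by annealing PCR-built, transcribed mutant libraries of each subunit of a heterodimeric triplet polymerase ribozyme with a biotinylated primer, the partner subunit and triplets, then incubating them frozen at −7 °C. After Illumina sequencing of inputs and outputs, genotypes needed ≥10 input reads and ≥1 read per output. Fitness is the base-2 logarithm of genotype enrichment over wild-type enrichment, using inverse-variance-weighted replicate averages.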

Compared with A64G G84U U151A, G65A C114A is higher in “polymerase ribozyme fitness (log ratio)” value: at most -4.2 for the first, -3.39 for the second.

Going from G67A A89G G92C C93A C116U A122C U127C to A60G C72U G124A, the “polymerase ribozyme fitness (log ratio)” value rises from at most -4.2 to 0.612.

Going from C69A G92U to A60G U90A C95A G117A, the “polymerase ribozyme fitness (log ratio)” value falls from -1.15 to -3.93.

C63U C79G A91G A107G and G67C A91C cannot be ordered by “polymerase ribozyme fitness (log ratio)” value: at most -4.2 for the first, at most -4.2 for the second.

U61C G67A G68C C79U A98G and G65C G74C G88A C93G U146A cannot be ordered by “polymerase ribozyme fitness (log ratio)” value: at most -4.2 for the first, at most -4.2 for the second.

U61G G71U C87U G143A and G70A C93A C103G cannot be ordered by “polymerase ribozyme fitness (log ratio)” value: at most -4.2 for the first, at most -4.2 for the second.

Going from G71U C85G U134G U139G to C69G C75G, the “polymerase ribozyme fitness (log ratio)” value rises from at most -4.2 to -2.12.

G68C G136U A142G and G62C A137C U148G cannot be ordered by “polymerase ribozyme fitness (log ratio)” value: at most -4.2 for the first, at most -4.2 for the second.

G68U C129U and A60G A89C U104G C108G cannot be ordered by “polymerase ribozyme fitness (log ratio)” value: at most -4.2 for the first, at most -4.2 for the second.

Compared with G68A C87A A107G G117U C132G, G71C C116U is higher in “polymerase ribozyme fitness (log ratio)” value: at most -4.2 for the first, -2.51 for the second.

Going from G68A G94C to U61A G74A C76U C87A C108U A142U, the “polymerase ribozyme fitness (log ratio)” value falls from -4.03 to at most -4.2.

Compared with A60U C131G, G65U U82A C93U C95G is lower in “polymerase ribozyme fitness (log ratio)” value: -3.54 for the first, at most -4.2 for the second.

Compared with A60G C96U U101G G128A, G68C G83U G92A U102A A137G A142G is lower in “polymerase ribozyme fitness (log ratio)” value: -3.75 for the first, at most -4.2 for the second.

A66G G83C U111G and G70A U78C G88U U104G A113G G128U U135A cannot be ordered by “polymerase ribozyme fitness (log ratio)” value: at most -4.2 for the first, at most -4.2 for the second.

A60U U61A G86A C93A A110C G133A and U61A C63U C85G A119U C131A cannot be ordered by “polymerase ribozyme fitness (log ratio)” value: at most -4.2 for the first, at most -4.2 for the second.

A60G A91G and C69U C85G C149U are within 0.2 log units of each other in “polymerase ribozyme fitness (log ratio)” value: -2.73 for the first, -2.74 for the second.

First: A66C C85A
Second: A60G C114U
The “polymerase ribozyme fitness (log ratio)” value of the first is lower: at most -4.2 for the first, -1.83 for the second.

First: A66G C87U
Second: G62C C72A A91G A98G C123U
The “polymerase ribozyme fitness (log ratio)” value of the first is higher: -3.68 for the first, at most -4.2 for the second.

First: A60G C96U
Second: G71C C87A G128U C131U G152U
The “polymerase ribozyme fitness (log ratio)” value of the first is higher: 0.674 for the first, at most -4.2 for the second.

Going from G67U C79G to C69U A98U, the “polymerase ribozyme fitness (log ratio)” value rises from at most -4.2 to -1.15.

C69U C87A and A66U G88A U109A A122C cannot be ordered by “polymerase ribozyme fitness (log ratio)” value: at most -4.2 for the first, at most -4.2 for the second.

A66C G92A and G68C C96G U139A cannot be ordered by “polymerase ribozyme fitness (log ratio)” value: at most -4.2 for the first, at most -4.2 for the second.

Compared with A60G C116A, U61A A107C C114U G140U is lower in “polymerase ribozyme fitness (log ratio)” value: 1.26 for the first, at most -4.2 for the second.

First: U61C G70A
Second: G62A A64C C85U C95G C105G A121U U134G U139G U151C
The “polymerase ribozyme fitness (log ratio)” value of the first is higher: -4.13 for the first, at most -4.2 for the second.

G70U G92U A98G A147C and G71C G80C C95G U104G C116U cannot be ordered by “polymerase ribozyme fitness (log ratio)” value: at most -4.2 for the first, at most -4.2 for the second.

Going from G62C G84A C125G G128A to A60C G92U, the “polymerase ribozyme fitness (log ratio)” value rises from at most -4.2 to -0.296.

First: C69G C96U A142C
Second: A60G G67A U78G C96G A120U G140U A147G
The “polymerase ribozyme fitness (log ratio)” value of the first is higher: -2.43 for the first, at most -4.2 for the second.

Going from G68A A106C to C69A G70C A106G C131U A137C, the “polymerase ribozyme fitness (log ratio)” value falls from -4.13 to at most -4.2.

G68C A89C C96A A113G G124C U134C and G68U A91G cannot be ordered by “polymerase ribozyme fitness (log ratio)” value: at most -4.2 for the first, at most -4.2 for the second.

Compared with A60C G92U A97G, A60G C93U U104G G143C is lower in “polymerase ribozyme fitness (log ratio)” value: -2.29 for the first, -3.09 for the second.

First: C69A C85A G124U
Second: C69G A89U
The “polymerase ribozyme fitness (log ratio)” value of the first is lower: -2.55 for the first, -1.45 for the second.

Compared with G68C C99G, A60U G86A is higher in “polymerase ribozyme fitness (log ratio)” value: at most -4.2 for the first, -2.78 for the second.

C69U C76G U130A and A66G C85A A91G U148A cannot be ordered by “polymerase ribozyme fitness (log ratio)” value: at most -4.2 for the first, at most -4.2 for the second.

C63U G68A G83C A115C U144C C149A and U61G C76A U78C G88C cannot be ordered by “polymerase ribozyme fitness (log ratio)” value: at most -4.2 for the first, at most -4.2 for the second.

Going from C69A A120C to U61A U78G C95U A107C U148G A150U, the “polymerase ribozyme fitness (log ratio)” value falls from -1.7 to at most -4.2.

Compared with G70U C131U A137G, A60G C95A U101C is higher in “polymerase ribozyme fitness (log ratio)” value: -4.05 for the first, 0.139 for the second.

A60U C87U and G62U G94A are within 0.2 log units of each other in “polymerase ribozyme fitness (log ratio)” value: -1.36 for the first, -1.25 for the second.

First: G67U C75A G92A G124U
Second: U61A G92C
The “polymerase ribozyme fitness (log ratio)” value of the first is lower: at most -4.2 for the first, -3.57 for the second.

First: G68U G136A
Second: G65A A89U G94U
The “polymerase ribozyme fitness (log ratio)” value of the first is lower: -3.9 for the first, -2.57 for the second.

C69G C87A and G68A G84U C131G G143U cannot be ordered by “polymerase ribozyme fitness (log ratio)” value: at most -4.2 for the first, at most -4.2 for the second.

Compared with G67A G86A, G62C G92C is higher in “polymerase ribozyme fitness (log ratio)” value: -3.58 for the first, -3.09 for the second.

A60G G94A C103A G140C and G71A G88A cannot be ordered by “polymerase ribozyme fitness (log ratio)” value: at most -4.2 for the first, at most -4.2 for the second.
